This note sets out measurements from publication PMC7511442.

For orientation: stoichiometry N means the number of molecules, sites or subunits per partner or assembly.

Assay [1] addresses GFP-GiKIN14a-Δtail (Giardia intestinalis). The assay is described as follows: hydrodynamic analysis.
Assay [2] shares this target. The assay is described as follows: single-molecule photobleaching.
Assay [3] concerns the target GFP-GiKIN14a (recombinant full-length GiKIN14a with an N-terminal GFP) (Giardia intestinalis). The assay is described as follows: hydrodynamic analysis.

In the case of GFP-GiKIN14a-Δtail (domain or fragment), the stoichiometry N in assay [1] and in assay [2] was 2 throughout.

On to “GFP-GiKIN14a (recombinant full-length GiKIN14a with an N-terminal GFP) (natural protein)”, for which the stoichiometry N in assay [3] was found to be 2.
